According to patent publication US20240325495A1, “FUSION PROTEINS FOR THE TREATMENT OF DISEASE” (Bristol-Myers Squibb Company, priority 2020, published 2024):

What was measured:
[1] = system: rats and monkeys; assay: Toxicity studies in rats and monkeys: common PD and safety findings; type: in vivo; settings: GLP pivotal nonclinical studies
From the text: The single- and repeat-dose toxicity of BMS-986326 were characterized in a series of studies in rats for up to 2 weeks and in monkeys up to 12 weeks using selected dosing frequencies. Pivotal good laboratory practice (GLP) repeat-dose studies in both species employed SC administration of BMS-986326 and consisted of two 2-week studies in rats using differing dose frequencies (once weekly [QW] vs twice weekly [2QW]), a 2-week once weekly dosing study in monkeys, and a 12-week (once every 3 week, Q3W) dosing study in monkeys. In addition, single-dose exploratory studies were initially completed in both rats and monkeys to explore the tolerability of BMS-986326, and a single-dose GLP IV toxicity and cardiovascular safety study was also completed in telemeterized monkeys using IV dosing to support IV administration in the first-in-human (FIH) single-ascending dose (SAD) study (IM034001).
Intended and unintended PD effects occurred in a dose-dependent manner across all doses of each toxicity study and were generally more pronounced in monkeys than in rats. As an IL-2R agonist, BMS-986326 induced maximal phosphorylation of STAT5 in Treg cells (72% to 95%) across all doses in rats and monkeys, increased Treg cells (up to 63× in monkeys) and/or CD25 expression on CD4 Tregs (up to 4.5× in rats), and raised serum levels of IL-10 (up to 2× in rats and 87× in monkeys). […]

[2] = system: rats; assay: 2-week toxicity study in rats, twice weekly SC; type: in vivo
From the text: (§1) The highest exposures were noted during the first week of each study and diminished considerably during the second week, due to ADA impact. […] Splenic capsular fibroplasia with inflammation was considered adverse at all twice weekly doses due to moderate to marked severity and was also associated with minimal to mild inflammation in the mesentery (adjacent to the stomach and pancreas), which further contributed to the adversity of the finding. […] The primary BMS-986326-related effects were mostly minimal in severity at all once weekly doses (0.25, 0.5, or 1 mg/kg) and included increased eosinophils (1.9× to 6.7×); minimal capsular fibroplasia/fibrosis of spleen without inflammation or involvement of adjacent mesentery; and pharmacologically mediated infiltration of eosinophils into a few tissues, none of which were considered adverse due to low magnitude of change and lack of evidence of any compromise in functional integrity of organs involved.

[3] = system: monkeys; assay: 12-week monkey toxicity study, SC Q3W
Protocol: In the 12-week monkey study, dose range and frequencies were reduced compared to the 2-week study with BMS-986326 administered at 0.0625, 0.125, or 0.25 mg/kg SC Q3W (Days 1, 22, 43, and 64).

[4] = Linker-cleavage ex vivo in monkey serum samples (LC-MS/MS); type: in vitro ADME; settings: monkey serum samples ex vivo after SC administration, up to 168 hours
Protocol: Various in vitro and in vivo studies were conducted to characterize the PK of BMS-986326 in the nonclinical setting.

[5] = system: self-blocking homodimer; assay: Biochemical and biophysical characterization: homodimer dissociation; type: binding; settings: in vitro at 37° C.
[6] = system: Treg; assay: Phase 1 single ascending dose study, Cohort A4; type: in vivo, human; settings: Cohort A4, 3 mg single intravenous infusion, compared to placebo; preliminary
Protocol: BMS-986326 is assessed in a Phase 1, randomized, double-blind, placebo-controlled, single ascending doses (SAD) study to evaluate the safety, tolerability, pharmacokinetics (PK), and pharmacodynamics (PD) of single doses of BMS-986326 in healthy adult participants.
Blood samples are collected and measured by flow cytometry for quantitating immune cells such as Treg, Tconv, follicular helper T cells (Tfh), B cells, and NK cells by surface markers that may include, but not limited to, cell lineage and activation markers CD3, CD4, CD8, CD14, CD25, CD39, CD45, CD45RA, CD56, CD127, Foxp3, Helios, CXCR5, CCR7, and Ki67. Blood samples are also collected and measured by flow cytometry for determining BMS-986326 engagement to Treg, Tconv, CD8 T cells, and NK cells identified by pSTAT5.
Preliminary Results from BMS-986326 Cohort A4 (3 mg Single Intravenous Infusion)

[7] = system: rats; assay: 2-week toxicity study in rats, once weekly SC; type: in vivo
From the text: as §1

[8] = system: monkeys; settings: monkey, in vivo

Chain of self-blocking homodimer (as listed by the source): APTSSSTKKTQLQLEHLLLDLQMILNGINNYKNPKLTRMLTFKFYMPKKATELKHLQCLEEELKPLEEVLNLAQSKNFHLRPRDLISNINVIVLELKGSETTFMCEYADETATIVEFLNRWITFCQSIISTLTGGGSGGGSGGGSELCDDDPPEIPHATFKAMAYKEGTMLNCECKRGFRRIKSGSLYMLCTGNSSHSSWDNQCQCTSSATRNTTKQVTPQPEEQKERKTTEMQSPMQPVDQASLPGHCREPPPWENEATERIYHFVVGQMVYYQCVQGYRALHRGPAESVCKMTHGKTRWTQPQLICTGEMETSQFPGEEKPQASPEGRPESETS

Substance: BMS-986326: recombinant fusion protein of human IL2 and extracellular domain of human CD25, (GGGS)3 linker, non-covalent self-blocking homodimer
- capillary leak syndrome (CLS) [1]: has not been observed
- doses with adverse capsular fibroplasia and inflammation of the spleen ([2]; rat, in vivo): ≥ 0.5 mg/kg
- increases in eosinophils versus controls ([2]; rat, in vivo, 0.5 mg/kg): 3-22 ×
- clinically tolerated doses ([2]; rats, 2-week studies, all doses): ≤ 2.5 mg/kg
- NOAEL ([2]; rats, twice weekly dosing study): a NOAEL was not identified
- mean AUC [0-336 h] at tolerated doses ([2]; rats, ≤[…]): ≤ 600 µg·h/mL
- NOAEL AUC[0-504 hours] ([3]; 12-week (once every 3 weeks) SC monkey toxicology study): ≤ 306 μ·h/ml
- magnitude of increase in Tregs relative to increase in conventional T cells ([3]; 12-week monkey study, Q3W, across the dose range): ≤ 2 times
- eosinophilic or mononuclear cell infiltration into other tissues ([3]; monkey, in vivo, sc): no eosinophilic or mononuclear cell infiltration into other tissues
- NOAEL ([3]; monkeys, 12-week SC Q3W): 0.25 mg/kg/dose
- mean AUC at NOAEL ([3]; monkeys, […] Q3W): 306 µg·h/mL
- linker-cleavage [4]: did not show signs of linker-cleavage
- dissociation half-life of self-blocking homodimer [5]: approximately 3 days
- Treg versus baseline levels [6]: increased from baseline levels
- mean AUC at NOAEL ([7]; 1 mg/kg once weekly): 162 µg·h/mL
- NOAEL ([7]; once weekly dosing for 2 weeks): 1 mg/kg
- decreased platelets [8]: 0.9-0.6
- decreased red cell mass versus pretest [8]: 0.9-0.6
- doses with adverse inflammation in eye choroid and choroid plexus of brain [8]: ≥ 0.25 mg/kg/week
- increased liver weights [8]: 16-75%
- number of tissues affected by mixed cell inflammation [8]: 16-28
- clinical signs ([8]; 0.75 mg/kg): adverse clinical signs of toxicity
- increased heart rate ([8]; 0.75 mg/kg): 25-28%
- mean AUC[0-168 h] ([8]; 0.75 mg/kg): ≥ 601 µg·h/mL
